Experiments:
[1] = test system: TrkB receptor; assay: Bioassay in RGC cultures for TrkB receptor binding; type: cell-based
[2] = Intracisternal delivery of 800-rhBDNF in naïve rats (Spectralis IRAF/IR imaging, NIR microscopy and HE histopathology); type: in vivo
Procedure: A Dyomics Near InfraRed (NIR) dye 800 was conjugated to rhBDNF (800-rhBDNF) as set forth above. […] Three single doses of 800-rhBDNF were injected midline intracisternally in naïve rats (n=4; n=3 800-rhBDNF, n=1 control, unmodified dye 800 carboxylic acid form). Three test doses of 800-rhBDNF were selected: lowest (5 μL for syringe, at 0.20 concentration=1 μg study article), mid-, and highest (30 μL; upper volume constraint is 50 μL). Images at three timepoints were collected, just prior to treatment, 15 min, and 6 h using two imaging modalities in both eyes (left eye, oculus sinister, OS; right eye, oculus dexter, OD). Imaging and histopathology methods were used to detect 800-rhBDNF in the optic chiasm or optic nerve head.
Two seetings were selected on the Heidelberg Spectralis®. Infrared autofluorescence IRAF; or ICG, to detect indocyanine green, an NIR dye uses a diode laser with a wavelength of 790 nm in the NIR spectrum. A barrier filter at 830 nm separates excitation and fluorescence light and thus, IRAF/ICG detects near IR fluorescence in 800-rhBDNF. […] After dissection, tissues were cryostatted to preserve NIR 800. Two directly contiguous sets of slides were produced from two sections of optic nerve, optic chiasm from brain tissue, and optic nerve head from eyes. HE stain.
Hematoxylin and eosin (HE) stain was applied to one slide set to reveal nerve tissue. NIR microscopy. Using an Olympus IX73 inverted 2-deck microscope with motorized filter cube turret; objective turret; Proscan XYZ stage; a 75 W Xenon burner; and DP80 Dual CCD 12.7 MP camera, NIR images are acquired in two channels at 4× in the FITC channel (detects auto-fluorescence) and ICG channel. The morphology of HE stained slides to those with FITC+NIR images was compared to confirm that NIR 800 had localized to in nerve tissue.

B1: 800-rhBDNF: Dyomics Near InfraRed (NIR) dye 800 conjugated to rhBDNF (conjugate, UniProt P23560 19-247, looked up)
Neurotrophic factor BDNF …: APMKEANIRGQGGLAYPGVRTHGTLESVNGPKAGSRGLTSLADTFEHVIEELLDEDQKVRPNEENNKDADLYTSRVMLSSQVPLEPPLLFLLEEYKNYLDAANMSMRVRRHSDPARRGELSVCDSISEWVTAADKKTAVDMSGGTVTVLEKVPVSKGQLKQYFYETKCNPMGYTKEGCRGIDKRHWNSQCRTTQSYVRALTMDSKKRIGWRFIRIDTSCVCTLTIKRGR
modifications: Dyomics 800 NIR dye
notes: Dyomics Near InfraRed (NIR) dye 800 conjugated to rhBDNF
TrkB receptor binding following synthesis [1]: TrkB receptor binding remains intact | localized irritation in the retinas ([2]; intracisternal injection, live imaging at baseline, 15 min and 6 h): No localized irritation in the retinas was observed | distribution of midline injection (both eyes) ([2]; midline intracisternal injection, imaging in OS and OD): distributed bilaterally | transport of 800 dye from the site of injection ([2]; preliminary studies, given intracisternally): transports 800 dye away from the site of injection, via the optic chiasm, to the optic nerve head | localization of NIR 800 dye in nerve tissue (morphology of NIR microscopy compared to HE stain) ([2]; single midline intracisternal injection, histopathology after euthanasia at 6 h, optic chiasm and optic nerve head): localizes the 800 dye and moves the 800 dye away from the injection site via optic chiasm to optic nerve head
